2 molecules from article PMC11021519, “Niche Tet maintains germline stem cells independently of dioxygenase activity” (The EMBO Journal, 2024) can be followed below.

The target of the test is T1, Myc-Tet-C (Drosophila, UniProt M9NEY8-5 1846-2921).
T1 construct: Drosophila Tet, C-terminal domain, aa1846-2921 of Tet-PF (FBpp0306013); also called C-terminal domain of Tet; source: bacteria (E. coli), pET32a(+), purified (Ni-NTA); not shown: Myc, N-terminal, kept
Description: pull-down; in vitro binding of two purified proteins (10 μg of each), overnight at 4 °C in Buffer A (50 mM Tris-HCl pH 7.5, 50 mM NaCl, 5% glycerol, 1 mM EDTA, 0.1% Igepal CA-630) with Dynabeads Protein G and 5 μg antibody (anti-HA, anti-Myc or anti-Strep); six washes; immunoblot. As to conditions: both partners purified.

T1 sequence (M9NEY8 1785-2860): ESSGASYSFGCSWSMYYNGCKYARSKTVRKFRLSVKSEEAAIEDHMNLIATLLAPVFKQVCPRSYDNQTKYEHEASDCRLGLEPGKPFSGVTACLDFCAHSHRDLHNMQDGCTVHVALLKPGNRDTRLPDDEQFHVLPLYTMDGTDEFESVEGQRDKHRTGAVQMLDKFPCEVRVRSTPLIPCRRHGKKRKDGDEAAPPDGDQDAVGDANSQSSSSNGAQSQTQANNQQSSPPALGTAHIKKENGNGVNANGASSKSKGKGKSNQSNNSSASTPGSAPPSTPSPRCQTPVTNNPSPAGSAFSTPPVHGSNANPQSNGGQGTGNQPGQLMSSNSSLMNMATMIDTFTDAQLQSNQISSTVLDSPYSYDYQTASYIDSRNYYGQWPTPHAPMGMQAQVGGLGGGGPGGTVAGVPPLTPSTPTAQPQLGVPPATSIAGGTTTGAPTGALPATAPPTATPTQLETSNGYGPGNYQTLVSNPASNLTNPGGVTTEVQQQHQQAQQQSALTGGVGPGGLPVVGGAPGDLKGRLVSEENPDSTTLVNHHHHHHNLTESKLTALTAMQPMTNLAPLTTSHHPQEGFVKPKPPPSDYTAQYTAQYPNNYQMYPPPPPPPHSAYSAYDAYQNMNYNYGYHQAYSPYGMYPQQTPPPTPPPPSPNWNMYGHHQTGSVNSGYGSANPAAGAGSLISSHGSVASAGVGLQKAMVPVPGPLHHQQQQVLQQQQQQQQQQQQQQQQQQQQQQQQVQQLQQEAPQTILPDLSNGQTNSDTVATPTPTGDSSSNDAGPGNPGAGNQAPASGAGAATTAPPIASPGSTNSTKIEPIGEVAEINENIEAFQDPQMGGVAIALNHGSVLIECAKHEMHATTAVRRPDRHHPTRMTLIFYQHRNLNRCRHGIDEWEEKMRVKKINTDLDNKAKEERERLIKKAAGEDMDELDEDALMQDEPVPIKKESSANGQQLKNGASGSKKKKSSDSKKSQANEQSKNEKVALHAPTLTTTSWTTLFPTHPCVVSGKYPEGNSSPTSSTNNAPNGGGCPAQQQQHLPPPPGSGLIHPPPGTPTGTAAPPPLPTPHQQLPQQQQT

B1: HA-Stat92E (natural protein, Drosophila, UniProt Q24151 1-761, looked up)
chain: MSLWKRISSHVDCEQRMAAYYEEKGMLELRLCLAPWIEDRIMSEQITPNTTDQLERVALKFNEDLQQKLLSTRTASDQALKFRVVELCALIQRISAVELYTHLRSGLQKELQLVTEKSVAATAGQSMPLNPYNMNNTPMVTGYMVDPSDLLAVSNSCNPPVVQGIGPIHNVQNTGIASPALGMVTPKVELYEVQHQIMQSLNEFGNCANALKLLAQNYSYMLNSTSSPNAEAAYRSLIDEKAAIVLTMRRSFMYYESLHEMVIHELKNWRHQQAQAGNGAPFNEGSLDDIQRCFEMLESFIAHMLAAVKELMRVRLVTEEPELTHLLEQVQNAQKNLVCSAFIVDKQPPQVMKTNTRFAASVRWLIGSQLGIHNNPPTVECIIMSEIQSQRFVTRNTQMDNSSLSGQSSGEIQNASSTMEYQQNNHVFSASFRNMQLKKIKRAEKKGTESVMDEKFALFFYTTTTVNDFQIRVWTLSLPVVVIVHGNQEPQSWATITWDNAFAEIVRDPFMITDRVTWAQLSVALNIKFGSCTGRSLTIDNLDFLYEKLQREERSEYITWNQFCKEPMPDRSFTFWEWFFAIMKLTKDHMLGMWKAGCIMGFINKTKAQTDLLRSVYGIGTFLLRFSDSELGGVTIAYVNENGLVTMLAPWTARDFQVLNLADRIRDLDVLCWLHPSDRNASPVKRDVAFGEFYSKRQEPEPLVLDPVTGYVKSTLHVHVCRNGENGSTSGTPHHAQESMQLGNGDFGMADFDTITNFENF
notes: Drosophila Stat92E, full-length isoform Stat92E-PF; source: bacteria (E. coli), pET32a(+), purified (Ni-NTA); not shown: HA, N-terminal, kept
For the molecule B1, the binding result is “binds”.

B2: Strep-Bap55 (natural protein, Drosophila, UniProt Q7K012 1-425, looked up)
chain: MSGGTMLYGGDEIGALVFDPGHHSLRVGYAQEDSPKAEIPSVVGIGAAPETNLDPETKTDNNATPNNADQRKFYVDTNYVTVPRSNMEVQTYMKDGMIDNWDLFEKVIDYAYANVIQSEPEYHPVLFSEASWNVRNNREKLTELMFEKYNVPAFFLVKNAVLAAFSSGRATALVVDSGATHTSAVPVHEGYVLSQAVVKSPLGGDFLSRQCRQHLEKHGIDLSPVYKIASKDVVKERDNGRFTLRKLPENLTQSWQNYMLQLMMQDFQMNVLQVLENPFDERVAAQIPTVHYEFPNGYHQDFGSERFKIAESLFDNAMLGAGQLASTSVGMCDADVRLSLFGSVVVTGGNTLLQGFPERLNRDLQLRAPSNTRLKMISANGSVERRFGAWIGGSILASIGTFQQMWISSQEYEEAGKSQVERKCP
notes: Drosophila Bap55, full-length Bap55-PA; pFastBac-HTB vectors usually also add an N-terminal His6 tag; source: insect cells (baculovirus), purified (Strep-Tactin XT, Superdex 200)
In the case of B2, the binding result is listed as “binds”.
